# Molecular target: recombinant gp140 from the clade C strain 92BR025 (HIV antigen), Sino Biological, Inc. (HIV, clade C strain 92BR025)
# Assay: SPR, Biacore T200; gp140 immobilized, GRFT as analyte at 12.5-400 nM; heterogeneous ligand model; mean ± SD of replicates
# Sequence of recombinant gp140 from the clade C strain 92BR025 (HIV antigen), Sino Biological, Inc. (HIV, clade C strain 92BR025) (O12164 32-677): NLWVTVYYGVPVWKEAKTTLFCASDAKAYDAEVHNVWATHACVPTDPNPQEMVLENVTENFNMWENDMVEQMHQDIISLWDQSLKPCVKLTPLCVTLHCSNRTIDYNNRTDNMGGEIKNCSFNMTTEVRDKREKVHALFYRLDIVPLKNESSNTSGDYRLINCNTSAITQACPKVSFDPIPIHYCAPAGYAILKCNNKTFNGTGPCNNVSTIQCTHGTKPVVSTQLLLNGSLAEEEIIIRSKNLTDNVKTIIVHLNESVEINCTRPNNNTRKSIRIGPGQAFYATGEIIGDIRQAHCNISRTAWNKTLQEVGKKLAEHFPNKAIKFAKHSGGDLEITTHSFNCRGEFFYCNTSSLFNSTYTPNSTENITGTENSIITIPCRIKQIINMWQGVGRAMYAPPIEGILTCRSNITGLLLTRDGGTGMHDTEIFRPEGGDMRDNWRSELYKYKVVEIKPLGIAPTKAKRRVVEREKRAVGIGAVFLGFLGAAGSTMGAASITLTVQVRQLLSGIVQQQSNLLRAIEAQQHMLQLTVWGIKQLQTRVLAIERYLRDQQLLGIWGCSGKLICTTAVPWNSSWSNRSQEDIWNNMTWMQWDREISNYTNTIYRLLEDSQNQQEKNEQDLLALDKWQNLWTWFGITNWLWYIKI
substance,measurement,value
"precipitation-purified Griffithsin (GRFT), recombinant, expressed in E. coli strain DLF_0025 from plasmid pHC-Kan-phoAp-GRFT (from UniProt P84801 1-121)",Kd,4.4 nM

# Source: US20230257791A1
